± gives the standard deviation.
Assay: protein stability index of a GFP-peptide fusion (GPS, HEK-293T) (PSI 1-6); higher = more stable
[1] = treatment: DMSO, c terminus: a fixed tail appended
[2] = treatment: MLN4924 1 uM, 8 h, c terminus: a fixed tail appended
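Note: 24-mer peptide tiles fused after GFP, lentivirally expressed, FACS-sorted into six equal bins by GFP/DsRed ratio, decoded by Illumina sequencing, PSI is the read-weighted mean bin number.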

| Sequence | protein stability index [1] | protein stability index [2] | protein stability index (treatment: DMSO, c terminus: native) | protein stability index (treatment: MLN4924 1 uM, 8 h, c terminus: native) |
| --- | --- | --- | --- | --- |
| NWKETLVFPPEVPISEKAKDLILR [STK38L] | 2.81 ± 0.43 | 3.28 ± 0.29 |  |  |
| NWWIRGILTLTMISLFFLIIYMGS [CDS1] | 2.54 ± 0.16 | 2.55 ± 0.35 |  |  |
| NYIGTKNVIETCKEAGVQKLILTS [NSDHL] | 2.5 ± 0.23 | 2.84 ± 0.44 |  |  |
| NYLVRLSFHNLKFDCSTANKIFLR [ZNF277] | 2.46 ± 0.4 | 2.55 ± 0.25 |  |  |
| NYMNAAMVHINRALKLIIRLFLVE [RTN3] | 2.24 ± 0.21 | 2.27 ± 0.26 |  |  |
| NYSYRGYGALSSNLQPPASLQTGN [NOL4L] | 3.64 ± 0.2 | 3.8 ± 0.25 |  |  |
| PACHSFNRAIHKKAKGTEAEEEY [FBXO34] |  |  | 5.25 ± 0.49 | 5.41 ± 0.34 |
| PAVTPDPWGVQGGQESEVPYKREE [PKD2L1] | 5.24 ± 0.33 | 5.49 ± 0.16 |  |  |
| PCPLGEPKTQACSGSESPSDSGKD [MYCL] | 5.41 ± 0.24 | 5.41 ± 0.17 |  |  |
| PDDRLTCSQLLESSYFDSFQEAQI [CDKL4] | 3.91 ± 0.43 | 4.08 ± 0.12 |  |  |
| PDLRSLFSRAGISEAQLTDAETSK [WAS] | 5.03 ± 0.28 | 5 ± 0.27 |  |  |
| PDVENEVKRLLRSDAEAVSTRWEV [TAF7L] | 3.24 ± 0.63 | 3.76 ± 0.65 |  |  |
| PELPEGHLEDWLEKRAKRLSSAPS [ZMAT5] | 4.32 ± 0.12 | 5.14 ± 0.14 |  |  |
| PENILLDRDGHIKLTDFGFAKKLV [PRKX] | 2.9 ± 0.17 | 3.08 ± 0.072 |  |  |
| PEPVYFHCAAVTPAGCMYIHGGVV [KLHDC10] | 2.53 ± 0.56 | 2.85 ± 0.71 |  |  |
| PEQVQNEIKSMKKRMSELCIDFNK [NLN] | 4.11 ± 0.44 | 4.23 ± 0.52 |  |  |
| PERSDLTLYLIVALATVSLLSLVT [PCDHGC5] | 2.02 ± 0.44 | 2.27 ± 0.56 |  |  |
| PFFVLNSDVICDFPFQAMVQFHRH [GMPPB] | 2.4 ± 0.67 | 2.34 ± 0.29 |  |  |
| PGAPGMPPGIPPLMPGVPPLMPGM [ZNF207] | 3.71 ± 0.13 | 3.62 ± 0.24 |  |  |
| PGYLVGRNNANGVDLNRNFPDLNT [CPN1] | 3.73 ± 0.36 | 3.67 ± 0.48 |  |  |
| PHKTFRKLRLFDTPHTPKSLLSKA [WEE1] | 2.82 ± 0.35 | 2.98 ± 0.41 |  |  |
| PHSDQRLRPQRTKQYVLLSILLCL [TMEM106C] | 2.34 ± 0.48 | 2.11 ± 0.17 |  |  |
| PKGGQVQIVTKKIDLSHVTSKCGS [MAP2] | 3.92 ± 0.18 | 3.91 ± 0.37 |  |  |

| Sequence | protein stability index [1] | protein stability index [2] | protein stability index (treatment: DMSO, c terminus: native) | protein stability index (treatment: MLN4924 1 uM, 8 h, c terminus: native) |
| --- | --- | --- | --- | --- |
| PKKISDLDHCANRVLMYGSELDAD [TPH1] | 4.58 ± 0.083 | 4.47 ± 0.088 |  |  |
| PLFSNWWIQVTSLRIFVWLLLLYF [PHTF1] | 2.21 ± 0.22 | 2.5 ± 0.49 |  |  |
| PLRADHMVKEPVEDTDPSTLSFNM [EDARADD] | 5.1 ± 0.083 | 4.86 ± 0.46 |  |  |
| PMLETASKLLLSGTADGADLRTVD [ANKRD17] | 4.68 ± 0.077 | 4.67 ± 0.22 |  |  |
| PMVLKGKIRPDSSRPELLQPLNFV [GLT8D2] | 2.83 ± 0.2 | 3 ± 0.3 |  |  |
| PNKDMVVQLIDDFKISGMNGIHVC [SRPK2] | 2.38 ± 0.27 | 2.35 ± 0.25 |  |  |
| PNSTKNQSLPKASPVTTSPTAATT [LCOR] | 4.91 ± 0.23 | 5.03 ± 0.26 |  |  |
| PPELNYGATGECQNFLDPGYPLPK [ZNF449] | 4.61 ± 0.2 | 4.67 ± 0.13 |  |  |
| PPRGPLGQGAMFRLPTDSHFPYDL [NEUROD6] | 3.46 ± 0.18 | 3.59 ± 0.38 |  |  |
| PPRRGVSGDRDENSFSLNSSISSS [MAP2] | 4.84 ± 0.14 | 4.74 ± 0.24 |  |  |
| PPYLPLAVPEDLADRLVRVHGDPA [FUT8] | 4.22 ± 0.12 | 4.31 ± 0.28 |  |  |
| PQRYPACAQMLPPNLSPHAPWNYH [TRAF3IP2] | 2.31 ± 0.37 | 2.11 ± 0.25 |  |  |
| PQTPAAPPATLGEGSADTEDRKLP [EHMT1] | 5.44 ± 0.28 | 5.36 ± 0.35 |  |  |
| PRKTAAPVNALVSHLLVVEPEKLY [ESRRA] | 2.83 ± 0.22 | 2.5 ± 0.18 |  |  |
| PRLWTTCRDGEVLLRLSKHGPGHE [ACSBG2] | 2.4 ± 0.15 | 2.21 ± 0.17 |  |  |
| PSDLDLVMSEGLGMRYAFIGPLET [CRYL1] | 2.46 ± 0.63 | 2.6 ± 0.39 |  |  |
| PSRAPPSTQEPQSPREGEELKPED [GNAS] | 5.5 ± 0.33 | 5.5 ± 0.32 |  |  |
| PSSQSSSGGGRDSSSSILRWLPEK [ELOA2] | 4.15 ± 0.12 | 4.25 ± 0.1 |  |  |
| PSTICFGQGAARGFKSNKKKTKQC [ZNF511] | 4.14 ± 0.83 | 3.84 ± 0.068 |  |  |
| PTLKKCEDVARPTQRLWDFTQSGP [GALNT9] | 3.69 ± 0.24 | 4 ± 0.17 |  |  |
| PTPSSPLPSVPVSVPASDPRSCSS [PLEKHN1] | 5.15 ± 0.2 | 5.14 ± 0.26 |  |  |
| PTQKALYNDVMQENYETVISLALF [ZNF75A] | 2.57 ± 0.45 | 2.47 ± 0.37 |  |  |
| PTTRNYPELNNNQYNRSSNSNGGN [CDC14A] | 4.654 ± 0.022 | 4.79 ± 0.1 |  |  |

| Sequence | protein stability index [1] | protein stability index [2] | protein stability index (treatment: DMSO, c terminus: native) | protein stability index (treatment: MLN4924 1 uM, 8 h, c terminus: native) |
| --- | --- | --- | --- | --- |
| PTVKDLIGGFTALHYAAMHGRARI [ASB7] | 2.56 ± 0.47 | 2.4 ± 0.43 |  |  |
| PVACGSVLSEGSPLTEQEESSPSH [SRPK2] | 5.52 ± 0.17 | 5.51 ± 0.17 |  |  |
| PVLRFDALWQVLARDCFATGRHYW [TRIM14] | 3.5 ± 0.53 | 3.21 ± 0.88 |  |  |
| PVQASQLEEEFDSDSGLSLDSSHS [NFE2L1] | 5.51 ± 0.11 | 5.46 ± 0.22 |  |  |
| PYIQLPSHSNITGIVEVILGETKA [TRIB1] | 2.63 ± 0.48 | 2.67 ± 0.52 |  |  |
| PYLLGPDKNLTEREVFNEIYPVWT [SLC19A2] | 2.35 ± 0.24 | 2.71 ± 0.26 |  |  |
| QAFLDELESSDLPVALLLAQHKDR [MNAT1] | 3.53 ± 0.13 | 3.49 ± 0.21 |  |  |
| QALMLPPGSFWGLCQVAQEALASA [VENTX] | 2.04 ± 0.25 | 2.18 ± 0.42 |  |  |
| QAQGQLRELLDRAMREAIQSYPSQ [SOAT2] | 3.01 ± 0.31 | 3.11 ± 0.31 |  |  |
| QAQKCYRDLALVSRDGMNIVLNKI [INTS3] | 2.29 ± 0.23 | 2.61 ± 0.44 |  |  |
| QCAVLIYTSGTTGIPKGVMLSHDN [ACSBG2] | 2.65 ± 0.51 | 2.58 ± 0.72 |  |  |
| QDFAKDLLKTLYNSIKNEKLEWAI [PSD2] | 2.32 ± 0.47 | 2.23 ± 0.25 |  |  |
| QEAVPLGLGLEDADWTQGLPWRFE [TEX19] | 3.34 ± 0.21 | 3.34 ± 0.3 |  |  |
| QEITEQQDIAQEISEAFSQRVGFG [CHMP4C] | 5.02 ± 0.14 | 4.77 ± 0.38 |  |  |
| QELCEGLLEESDGEGEPGQGEGPE [NOP53] | 5.6 ± 0.14 | 5.56 ± 0.11 |  |  |
| QEMVVSSLVIGALLASLTGGVLID [SLC2A12] | 3.61 ± 0.39 | 3.45 ± 0.73 |  |  |
| QENYLEYRQVPGSDPARYEFLWGP [MAGEA10] | 3.28 ± 0.27 | 3.54 ± 0.32 |  |  |
| QEYNIPGVIQSVIGWKTVRMYPFQ [CDS2] | 2.45 ± 0.67 | 2.42 ± 0.3 |  |  |
| QFAISRELIRNIYNSFHKLRDRAE [SNX8] | 2.19 ± 0.13 | 2.23 ± 0.21 |  |  |
| QGDSSQQSLKGHLRNNFQKQLLSN [ZC2HC1C] | 3.31 ± 0.27 | 3.88 ± 0.16 |  |  |
| QGELADQDVDPVHNLIEQVSLGLG [FBXO33] | 4.55 ± 0.27 | 4.66 ± 0.072 |  |  |
| QHHEALSLFCYEDQEAVCLICAIS [TRIM39] | 2.26 ± 0.23 | 2.35 ± 0.18 |  |  |
| QIGFSVGLGNIWRFPYLCQKNGGG [SLC6A17] | 2.02 ± 0.37 | 1.9 ± 0.33 |  |  |

| Sequence | protein stability index [1] | protein stability index [2] | protein stability index (treatment: DMSO, c terminus: native) | protein stability index (treatment: MLN4924 1 uM, 8 h, c terminus: native) |
| --- | --- | --- | --- | --- |
| QILGQTLKASMRELGLLIFFLFIG [KCNA1] | 2.67 ± 0.67 | 2.45 ± 0.51 |  |  |
| QISMELAKVNYVKNNICFMSHHQE [SLC2A12] | 2.6 ± 0.16 | 2.41 ± 0.27 |  |  |
| QKEDVKPYQVNGVNPAYPESRYTS [ETS1] | 4.53 ± 0.18 | 4.48 ± 0.15 |  |  |
| QLSRLNITYPMLFKLTNKNSDRMT [UFD1] | 2.33 ± 0.14 | 2.58 ± 0.42 |  |  |
| QMGVSAKRRPKAQPTTLVLPPQYV [MED27] | 2.99 ± 0.19 | 3.1 ± 0.19 |  |  |
| QNCTDEGEREAIQKSVTRSCLLEE [POP5] | 5.17 ± 0.3 | 5.3 ± 0.33 |  |  |
| QNFKNRESYPEDTVFYIPEDHKPG [DLC1] | 4.63 ± 0.087 | 4.53 ± 0.44 |  |  |
| QNINAPAPATTSSWEVVRNPLIAS [C22orf31] | 3.65 ± 0.32 | 3.7 ± 0.16 |  |  |
| QNPGKFDELDMSPGDPKWLDVIER [TBC1D10A] | 4.27 ± 0.081 | 4.49 ± 0.28 |  |  |
| QNQHHSASLQASIFSGAASLGYGT [APBB1IP] | 3.19 ± 0.16 | 3.15 ± 0.17 |  |  |
| QPLRPWAGGDVPHKTHQAPASASS [DYRK1B] | 4.54 ± 0.17 | 4.58 ± 0.26 |  |  |
| QPVVDTFDIRILMAKSVKYTVNFL [CARM1] | 2.79 ± 0.7 | 2.62 ± 0.56 |  |  |
| QQFQPAGTDQVCVLEWGAEGVAGK [FCHSD1] | 4.46 ± 0.24 | 4.64 ± 0.23 |  |  |
| QRILRIMCRLEELGLAGRCLTLTP [HDAC6] | 2.39 ± 0.44 | 2.34 ± 0.39 |  |  |
| QRQKYLSLQQMQELSNILNLSYKQ [NANOGP8] | 2.57 ± 0.29 | 2.69 ± 0.15 |  |  |
| QRRHGWNPKDCSENIEVKEGGLYF [SPSB2] | 3.45 ± 0.31 | 3.76 ± 0.46 |  |  |
| QRVVYLEGCGPPLRRWLRANLAAS [TSPAN10] | 2.26 ± 0.33 | 2.11 ± 0.24 |  |  |
| QRYILYWRKRFTEQPITDFCSVIR [ZNF277] | 1.93 ± 0.23 | 2.24 ± 0.26 |  |  |
| QSSGLIRHQRIHTGERPYECNECG [ZSCAN9] | 4.03 ± 0.36 | 4 ± 0.49 |  |  |
| QTGGDVNVEMDAAPGVDLSRILNE [KRT16] | 4.97 ± 0.31 | 5.18 ± 0.085 |  |  |

— the supplement of paper PMC10567573
